This is an account of results in patent US20160376366A1 (IMMUNOMEDICS, published 2016).

Assay [1] addresses T1, CD22 on CD22+ Daudi cells and on B cells within PBMCs (human, UniProt P20273 20-847).
T1 construct: whole, on cells; The target was presented on human cells; also called human CD22
Put plainly: flow cytometry on CD22+ Daudi cells, MFI, FITC anti-human Fc detection. The protocol:
(§1) FIG. 3. […] Binding activity at indicated concentrations is given as the MFI. Measurements were performed in triplicate; standard deviations are shown as bars.
(§2) Cells were pelleted at 200 g at 4° C. for 5 min and washed twice with 500 μl of FACS buffer. For detection of bound antibodies, cells were incubated with saturating amounts of FITC conjugated F(ab) Fragment goat anti-Human IgG, Fc specific (13 μg/ml; Jackson Immuno Research, West Grove, Pa.) for 45 min at 4° C. and washed again with 500 μl of FACS buffer. Stained cells were analyzed on a FACSCAN™ Flow Cytometer (BD Bioscience, San Jose, Calif.), and median fluorescence intensity (MFI) was calculated using […]™ software (BD Bioscience).
On the technique in general: Flow cytometry measures light scatter and fluorescence of single cells or particles in a stream.

Assay [2] concerns the target T1, CD22 on CD22+ Daudi cells and on B …. Put plainly: ELISA on CD22+ Daudi cells. Background: An ELISA detects its analyte on a solid surface through an enzyme-linked reagent.
The target is the same in assay [3]. Put plainly: flow cytometry (MFI) on CD22+ Daudi cells. The protocol:
as §1, §2

For assay [4] the target is unchanged. As to the kind of experiment: flow cytometry on CD22+ Daudi cells; reference hLL2 IgG. The protocol:
as §1, §2

The target is the same in assay [5]. As to the kind of experiment: ELISA on CD22+ Daudi cells (FIG. 2); reference hLL2.

The EC50 is the concentration that produces a half-maximal response. Low readings indicate a more potent agent, high ones a less potent agent. As a reminder, the Kd is the concentration at which binding is half-saturated.

B1: humanized anti-CD22 LL2 antibody (hLL2, epratuzumab), IgG (antibody, V domains shown)
VH: QVQLQQSGAEVKKPGSSVKVSCKASGYTFTSYWLHWVRQAPGQGLEWIGYIYPRNDYTEYNQNFKDKATITADESTNTAYMELSSLRSEDTAFYFCARRDITTFYWGQGTTVTVSS
VL: DIQLTQSPSSLSASVGDRVTMSCKSSQSVLYSANHKNYLAWYQQKPGKAPKLLIYWASTRESGVPSRFSGSGSGTDFTFTISSLQPEDIATYYCHQYLSSWTFGGGTKVQIKR
notes: Tested as IgG with human constant regions; also called hLL2 IgG
For the molecule B1, the values for the half-maximal effective concentration (EC50) in assay [1] and in assay [3] were 6.9 nM and 1.03 µg/mL, respectively. This molecule also showed a dissociation constant Kd in assay [2] of 7.6 nM.

B2: humanized RFB4 (hRFB4) anti-CD22 antibody, IgG (antibody, V domains shown)
VH: QVQLVQSGAEVKKPGSSVKVSCKASGFTFSIYDMSWVRQAPGQGLEWVAYISSGGGTTYYPDTVKGRFTITADESTNTAYMELSSLRSEDTAFYFCARHSGYGSSYGVLFAYWGQGTLVTVSS
VL: DIQLTQSPSSLSASVGDRVTISCRASQDISNYLNWYQQKPGKAPKLLIYYTSILHSGVPSRFSGSGSGTDYTFTISSLQPEDIATYYCQQGNTLPWTFGGGTKVQIKR
notes: RFB4 CDRs were inserted into the FR and constant regions of hLL2; also called hRFB4 IgG
Consider B2, for which the EC50 in assay [1] turned out to be 0.4 nM; in assay [3], 0.055 µg/mL. Further, in assay [4], the “fold higher affinity (EC50) than hLL2” value came to 19 fold. The “fold higher binding affinity than hLL2” value in assay [5] came out at 10 fold.
